Read-outs that look alike come from different tables or passages of the source.
Legend:
[1] = molecular target: T1, HLA-A*0201 molecule expressed on human tumor cell line T2 (human); test: T2 cell HLA-A2 stabilisation, FACS; peptide at 50 µM
T1 construct: surface HLA-A2 read with anti-HLA-A2 antibody BB7.2-PE by FACS; also called HLA-A2

[2] = molecular target: T1, HLA-A*0201 molecule expressed on human …; test: T2 cell HLA-A2 stabilisation, FACS; peptide at 3.125 µM
[3] = molecular target: T1, HLA-A*0201 molecule expressed on human …; test: T2 cell HLA-A2 stabilisation, FACS; 20% of signal of HIV pol 589-597 at 100 µM
[4] = molecular target: T1, HLA-A*0201 molecule expressed on human …; test: T2 cell HLA-A2 stabilisation, FACS; peptide at 25 µM
[5] = molecular target: T1, HLA-A*0201 molecule expressed on human …; test: T2 cell HLA-A2 stabilisation, FACS; peptide at 1.5625 µM
[6] = molecular target: T1, HLA-A*0201 molecule expressed on human …; test: T2 cell HLA-A2 stabilisation, FACS; peptide at 100 µM
[7] = molecular target: T1, HLA-A*0201 molecule expressed on human …; test: T2 cell HLA-A2 stabilisation, FACS; ratio of 20% concentration to that of HIV pol 589-597 (lower = stronger)
[8] = molecular target: T1, HLA-A*0201 molecule expressed on human …; test: T2 cell HLA-A2 stabilisation, FACS; 20% of signal of HIV pol 589-597 at 100 µM; remark: listed apart in the source
[9] = molecular target: T1, HLA-A*0201 molecule expressed on human …; test: T2 cell HLA-A2 stabilisation, FACS; ratio of 20% concentration to that of HIV pol 589-597 (lower = stronger); remark: listed apart in the source
[10] = molecular target: T1, HLA-A*0201 molecule expressed on human …; test: T2 cell HLA-A2 stabilisation, FACS; peptide at 6.25 µM

Row | Binder | mean relative fluorescence intensity [1] | mean relative fluorescence intensity [2] | Concentration of peptide that induces 20% of HLA-A2 expression [3] | mean relative fluorescence intensity [4] | mean relative fluorescence intensity [5] | mean relative fluorescence intensity [6] | In vitro binding affinity (relative affinity) [7] | Concentration of peptide that induces 20% of HLA-A2 expression [8] | In vitro binding affinity (relative affinity) [9] | mean relative fluorescence intensity [10]
1 | GLLGEFLQI [BIRC5-B3] | 29.8 relative (HIV peptide = 100) | 8.9 relative (HIV peptide = 100) | 22.9 µM | 20.9 relative (HIV peptide = 100) | 9.4 relative (HIV peptide = 100) | 35 relative (HIV peptide = 100) | 7 | – | – | –
2 | FMPFGFILV [IL13RA2-B2 (SEQ ID NO: 64, Example 13)] | – | – | – | – | – | – | – | 4.5 µM | 5.97 | –
3 | YLPFGFILV [IL13RA2-B5] | – | – | – | – | – | – | – | 1.5 µM | 1.76 | –
4 | YMPFGFILV [IL13RA2-B4] | – | – | – | – | – | – | – | 4.5 µM | 5.24 | –
5 | YTLGEFLYI [BIRC5-B2] | 54.4 relative (HIV peptide = 100) | 6.6 relative (HIV peptide = 100) | 14.7 µM | 29.6 relative (HIV peptide = 100) | – | 58 relative (HIV peptide = 100) | 4.5 | – | – | 9 relative (HIV peptide = 100)
6 | FMPFGFILPI [IL13RA2-B6] | – | – | – | – | – | – | – | 5.9 µM | 6.86 | –
7 | LMDLSTTEV [FOXM1-B2] | 91.5 relative (HIV peptide = 100) | 12.7 relative (HIV peptide = 100) | 6.7 µM | 98.2 relative (HIV peptide = 100) | 7.2 relative (HIV peptide = 100) | 105 relative (HIV peptide = 100) | 1.3 | – | – | 33.5 relative (HIV peptide = 100)
8 | WLPFGFILI [IL13RA2-H] | 14.2 relative (HIV peptide = 100) | 3.7 relative (HIV peptide = 100) | – | 11.2 relative (HIV peptide = 100) | 3 relative (HIV peptide = 100) | 26.5 relative (HIV peptide = 100) | – | 62.3 µM | 78.8 | 9.6 relative (HIV peptide = 100)
9 | LMDLSTTPL [FOXM1-H2] | 62.5 relative (HIV peptide = 100) | 0.9 relative (HIV peptide = 100) | 12.6 µM | 65.4 relative (HIV peptide = 100) | 5.3 relative (HIV peptide = 100) | 77.6 relative (HIV peptide = 100) | 2.5 | – | – | 19.7 relative (HIV peptide = 100)
10 | RVSSYLVPI [FOXM1-H] | 30.7 relative (HIV peptide = 100) | 0 relative (HIV peptide = 100) | 37.6 µM | 10.5 relative (HIV peptide = 100) | 0 relative (HIV peptide = 100) | 83.8 relative (HIV peptide = 100) | 3.7 | – | – | 0 relative (HIV peptide = 100)
11 | RLSSYLVEI [FOXM1-B] | 21.3 relative (HIV peptide = 100) | 0 relative (HIV peptide = 100) | 46.7 µM | 7.6 relative (HIV peptide = 100) | 0 relative (HIV peptide = 100) | 47.5 relative (HIV peptide = 100) | 4.6 | – | – | 0 relative (HIV peptide = 100)
12 | FMPFGFILGV [IL13RA2-B3] | – | – | – | – | – | – | – | 3.3 µM | 4.39 | –
